B1: C105 (antibody, V domains shown)
VH: QVQLVESGGGLIQPGGSLRLSCAASGFTVSSNYMSWVRQAPGKGLEWVSVIYSGGSTYYADSVKGRFTISRDNSKNTLYLQMNSLRAEDTAVYYCARGEGWELPYDYWGQGTLVTVSS
VL: QSALTQPPSASGSPGQSVTISCTGTSSDVGGYKYVSWYQQHPGKAPKLMIYEVSKRPSGVPDRFSGSKSGNTASLTVSGLQAEDEADYYCSSYEGSNNFVVFGGGTKLTVL
B2: C118 (antibody, V domains shown)
VH: QVQLVESGGGVVQPGRSLRLSCAASGFTFSNYAMHWVRQAPGKGLEWVAVISYDGSNKYYADSVKGRFTISRDNSKNTLYLQMNSLRAEDTAIYYCASGYTGYDYFVRGDYYGLDVWGQGTTVTVSS
VL: QPVLTQSPSASASLGASVKLTCTLSSGHSSYAIAWHQQQPEKGPRYLMKLNTDGSHSKGDGIPDRFSGSSSGAERYLTISSLQSEDEADYYCQTWGTGILVFGGGTKLTVL

Biological target: SARS-CoV-2 Wuhan-Hu-1 receptor binding domain (RBD), Spike (S) protein residues 319-539 (SARS-CoV-2, UniProt P0DTC2)
Test: BLI
Details: both partners purified

Binder | binding result
B1 | binds
B2 | binds

— article PMC9259484 (Nature, 2022)
